We go through one substance from patent US20090270325A1.

The target of test [1] is human GHR on human 293 cells stably expressing the human GHR (human) (UniProt P10912).
Test [2] has the same target. This is another data set of the same source.

For the substance “hGH-GHR Chimera (75 kDa chimera) (from UniProt P01241)”, in test [1], the GH-specific luciferase reporter assay (bioactivity) stood at 10%. In addition, the concentration for the maximal response, Stat 5 luciferase-reporter assay in test [2] is 50 to 250 nM.
